# US20100028347A1 (Eli Lilly, published 2010)
# B1: anti-human VEGFR-1 antibody 18F1 (antibody, V domains shown)
# VH: QAQVVESGGGVVQSGRSLRLSCAASGFAFSSYGMHWVRQAPGKGLEWVAVIWYDGSNKYYADSVRGRFTISRDNSENTLYLQMNSLRAEDTAVYYCARDHYGSGVHHYFYYGLDVWGQGTTVTVSS
# VL: not shown
# notes: Fully human antibody (gamma heavy chain, kappa light chain) from hybridomas of KM transgenic mice, purified; The light chain entry runs a few residues into the kappa constant region; also called MC-18F1; IMC-18F1
# Tests used:
# [1] = target: T1, recombinant extracellular domain of VEGFR-1 (UniProt P17948 27-758, limits assumed); assay: SPR, BIAcore 2000, VEGFR-1 extracellular domain immobilised at low density
# T1 construct: extracellular domain
# Protocol: Affinities of anti-VEGFR-1 antibody clones 6F9, 13 G12, 15F1 1, 18F1 were determined by plasmon resonance technology using BIAcore 2000 (Pharmacia, Piscataway, N.J.) according to the procedures provided by the manufacturer. Kinetic analyses of the antibodies were performed by immobilization of recombinant extracellular domain of VEGFR-I onto a sensor surface at a low density. The (kₒₙ) and dissociation (kₒ_{^ff}) rates were determined using the BIAevaluation 2.1 software provided by the manufacturer.
# [2] = target: T2, recombinant human VEGFR-1 Fc (human, UniProt P17948-2 27-687, limits assumed); assay: ELISA: plate coated with HuVEGFR-1-Fc 100 ng/well, goat anti-human kappa-HRP, O.D. 450
# T2 construct: Bought from R&D Systems; also called rhuVEGFR-1 Fc; HuVEGFR-I-Fc; not shown: Fc part
# Protocol: TMB (3,3′,5,5′-tetra-methylbenzidine) substrate (Kierkegaard and Perry Lab, Inc., Gaithersburg, Md.) was used for color development following the manufacturer's instruction. The absorbance at 450 nanometers (nm) was read for quantification of binding activity of antibodies. For identification of the hybridomas producing anti-VEGFR-I antibodies, hybridoma supernatants were preincubated with VEGFR-I AP for 1 hour. […] PNPP (p-nitrophenyl phosphate) substrate for AP was used for color development following the manufacturer's instruction. The absorbance at 405 nm was read for quantification of VEGFR-I binding to VEGF or P1GF. Optical density (OD) values were read on a microtiter plate reader (Molecular Devices Corp., Sunnyvale, Calif.). ED50 and IC50 of the antibodies were analyzed using GraphPad Prism 3 software (GraphPad Software, Inc., San Diego, Calif.).
# HuVEGFR-I-Fc, mouse VEGFR-I-AP (hnClone Systems) or huVEGFR-2-AP (ImClone Systems) (100 ng/well) was coated on 96 strip-well plates and blocked with 5% milk/PBS. […]
# [3] = target: T2, recombinant human VEGFR-1 Fc; assay: ELISA: antibody dilutions on plate coated with 1 µg/ml human VEGFR-1 Fc, HRP secondary, O.D. 450
# Protocol: (§1) To determine the specificity of an anti-VEGFR-1 monoclonal antibody to human VEGFR-I, purified antibodies 18F1 were tested in an ELISA-based assay. One μg/ml of recombinant human VEGFR-I Fc, mouse VEGFR-I Fc, mouse VEGFR-2 Fc, or human VEGFR-2 alkaline phosphatase was coated with PBS in a 96-well microtiter plates at 4° C. over night. After wash, the receptor coated plates were blocked with PBS containing 5% Dry Milk and 0.05% Tween 20. Serial dilutions of primary antibody 18F1 to human VEGFR-I, MF1 to mouse VEGFR-I, IC1 1 to human VEGFR-2, or DClOl to mouse VEGFR-2 were incubated in the receptor-coated plates for 30 minutes. After wash secondary anti-primary HRP conjugate antibodies was incubated in the plates for 30 minutes. Plates were washed and incubated with the substrate TMB (3,3′,5,5′-tetra-methylbenzidine) for color development. The absorbance at 450 nm was read as OD values for quantification of binding activity of antibodies. Data were analyzed using a GraphPad Prism Software.
# [4] = target: T3, mouse VEGFR-2 Fc (mouse, UniProt P35918 20-762, limits assumed); assay: ELISA: antibody dilutions on plate coated with 1 µg/ml mouse VEGFR-2 Fc, HRP secondary, O.D. 450
# T3 construct: not shown: Fc part; not described
# Protocol: as §1
# [5] = target: T4, human VEGFR-2 alkaline phosphatase (human, UniProt P35968 20-764); assay: ELISA: antibody dilutions on plate coated with 1 µg/ml human VEGFR-2 alkaline phosphatase, HRP secondary, O.D. 450
# T4 construct: also called huVEGFR-2-AP; not shown: alkaline phosphatase fusion partner; not described
# Protocol: as §1
# T1 sequence (P17948 27-758 limits assumed): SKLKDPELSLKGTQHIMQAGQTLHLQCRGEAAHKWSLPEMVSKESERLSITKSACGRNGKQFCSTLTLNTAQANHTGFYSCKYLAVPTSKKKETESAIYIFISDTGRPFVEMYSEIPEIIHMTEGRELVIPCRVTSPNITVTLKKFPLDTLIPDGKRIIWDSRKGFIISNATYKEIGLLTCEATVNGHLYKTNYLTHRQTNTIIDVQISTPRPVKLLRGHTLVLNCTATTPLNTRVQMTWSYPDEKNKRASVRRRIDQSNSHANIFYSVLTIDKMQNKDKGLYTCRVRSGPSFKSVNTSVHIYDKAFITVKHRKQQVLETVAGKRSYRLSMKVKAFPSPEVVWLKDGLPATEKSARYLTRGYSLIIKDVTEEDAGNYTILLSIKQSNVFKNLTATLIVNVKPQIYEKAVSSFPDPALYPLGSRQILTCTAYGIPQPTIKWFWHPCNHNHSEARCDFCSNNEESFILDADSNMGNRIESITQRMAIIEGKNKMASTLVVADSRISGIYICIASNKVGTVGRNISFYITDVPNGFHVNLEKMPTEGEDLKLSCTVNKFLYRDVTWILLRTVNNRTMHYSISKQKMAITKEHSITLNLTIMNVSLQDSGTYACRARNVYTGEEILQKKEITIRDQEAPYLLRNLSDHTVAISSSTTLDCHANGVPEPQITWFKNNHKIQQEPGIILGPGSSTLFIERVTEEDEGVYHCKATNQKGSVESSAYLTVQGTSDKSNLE
# T2 sequence (P17948 other isoform, or with tags, fused parts or gaps limits assumed): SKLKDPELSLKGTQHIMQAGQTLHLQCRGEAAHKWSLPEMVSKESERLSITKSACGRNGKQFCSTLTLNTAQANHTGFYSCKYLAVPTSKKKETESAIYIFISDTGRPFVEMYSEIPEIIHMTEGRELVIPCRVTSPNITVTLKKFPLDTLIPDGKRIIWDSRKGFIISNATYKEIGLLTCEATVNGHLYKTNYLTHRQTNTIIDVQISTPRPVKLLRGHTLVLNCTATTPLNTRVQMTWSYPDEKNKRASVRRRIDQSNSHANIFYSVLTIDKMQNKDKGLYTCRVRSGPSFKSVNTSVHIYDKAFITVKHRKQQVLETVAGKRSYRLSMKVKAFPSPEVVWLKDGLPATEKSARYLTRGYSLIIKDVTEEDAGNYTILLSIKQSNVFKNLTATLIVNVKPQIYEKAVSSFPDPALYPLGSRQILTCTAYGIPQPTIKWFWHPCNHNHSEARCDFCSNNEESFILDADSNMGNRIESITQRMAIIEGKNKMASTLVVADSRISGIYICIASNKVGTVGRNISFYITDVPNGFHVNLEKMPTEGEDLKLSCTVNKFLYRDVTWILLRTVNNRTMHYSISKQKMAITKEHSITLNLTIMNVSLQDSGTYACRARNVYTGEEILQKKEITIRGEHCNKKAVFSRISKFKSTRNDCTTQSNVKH
# T3 sequence (P35918 20-762 limits assumed): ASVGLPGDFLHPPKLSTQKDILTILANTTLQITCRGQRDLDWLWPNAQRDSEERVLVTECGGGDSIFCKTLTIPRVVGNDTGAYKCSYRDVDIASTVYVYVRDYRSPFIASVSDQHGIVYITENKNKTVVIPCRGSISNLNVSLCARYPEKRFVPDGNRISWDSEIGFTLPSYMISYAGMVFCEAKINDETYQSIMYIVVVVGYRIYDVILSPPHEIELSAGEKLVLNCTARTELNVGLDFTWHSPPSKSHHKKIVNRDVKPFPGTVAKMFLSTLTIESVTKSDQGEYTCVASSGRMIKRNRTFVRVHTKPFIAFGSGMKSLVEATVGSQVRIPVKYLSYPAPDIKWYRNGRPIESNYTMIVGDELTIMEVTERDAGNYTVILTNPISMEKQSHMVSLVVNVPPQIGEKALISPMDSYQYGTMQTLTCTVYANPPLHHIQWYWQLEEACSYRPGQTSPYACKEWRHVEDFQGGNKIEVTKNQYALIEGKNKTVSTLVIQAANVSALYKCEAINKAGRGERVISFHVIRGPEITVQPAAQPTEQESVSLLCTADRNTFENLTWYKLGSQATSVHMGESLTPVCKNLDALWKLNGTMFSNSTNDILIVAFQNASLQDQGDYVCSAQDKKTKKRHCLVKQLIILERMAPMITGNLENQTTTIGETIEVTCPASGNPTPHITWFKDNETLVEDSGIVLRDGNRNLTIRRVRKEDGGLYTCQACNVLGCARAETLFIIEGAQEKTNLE
# T4 sequence (P35968 20-764): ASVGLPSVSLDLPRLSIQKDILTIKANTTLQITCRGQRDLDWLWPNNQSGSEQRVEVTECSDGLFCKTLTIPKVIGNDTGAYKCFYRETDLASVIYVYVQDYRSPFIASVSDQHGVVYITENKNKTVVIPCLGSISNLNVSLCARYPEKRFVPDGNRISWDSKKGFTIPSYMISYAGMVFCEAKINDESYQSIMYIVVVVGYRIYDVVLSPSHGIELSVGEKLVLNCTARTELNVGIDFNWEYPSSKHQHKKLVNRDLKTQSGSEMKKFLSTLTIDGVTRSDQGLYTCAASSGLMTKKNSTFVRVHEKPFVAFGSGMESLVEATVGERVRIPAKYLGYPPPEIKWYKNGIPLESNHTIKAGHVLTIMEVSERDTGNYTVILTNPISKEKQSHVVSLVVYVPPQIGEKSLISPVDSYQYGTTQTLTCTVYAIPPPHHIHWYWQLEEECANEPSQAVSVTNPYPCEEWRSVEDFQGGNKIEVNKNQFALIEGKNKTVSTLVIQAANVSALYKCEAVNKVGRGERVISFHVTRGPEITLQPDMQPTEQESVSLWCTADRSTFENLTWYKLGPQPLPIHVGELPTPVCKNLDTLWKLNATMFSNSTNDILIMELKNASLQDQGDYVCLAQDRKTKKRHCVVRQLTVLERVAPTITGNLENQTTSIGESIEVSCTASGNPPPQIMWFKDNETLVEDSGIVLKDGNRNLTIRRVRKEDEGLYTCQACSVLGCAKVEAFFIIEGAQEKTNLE
binder,measurement,setting,value
B1,Kd,[1],0.054 nM
same,kon,[1],810000 M⁻¹ s⁻¹
same,EC50 (read off the curve),[2],~3 ng/mL
same,EC50 (read off the curve),[3],~3 ng/mL
same,binding result,[4],no binding (tested: 1 µg/ml)
same,binding result,[5],no binding (tested: 1 µg/ml)
